In paper PMC4791140 (Molecular Biology of the Cell, 2016):

Target: T1, MBP-tagged WHAMM membrane-interaction domain (WMD) (human, UniProt Q8TF30 1-260)
T1 sequence (looked up): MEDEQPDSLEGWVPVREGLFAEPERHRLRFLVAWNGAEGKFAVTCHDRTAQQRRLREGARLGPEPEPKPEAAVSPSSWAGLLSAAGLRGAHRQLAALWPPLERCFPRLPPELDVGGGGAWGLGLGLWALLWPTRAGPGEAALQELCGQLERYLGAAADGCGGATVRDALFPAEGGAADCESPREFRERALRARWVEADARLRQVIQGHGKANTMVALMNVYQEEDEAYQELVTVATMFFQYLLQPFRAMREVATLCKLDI
Assay: pull-down

B1: GST-Rab1a, membrane-extracted prenylated form (Rab1(M)) (natural protein)
chain: not shown
modifications: prenylated (residues not stated)
binding result: binds
